The values below are quoted from earlier work in PMC6293969.

For one data set, the target named is CLK1 (Homo sapiens) (UniProt P49759).
A further data set has as its target SRSF1 (Homo sapiens) (UniProt Q07955).
Sequence of UniProt Q07955 (Q07955 2-248): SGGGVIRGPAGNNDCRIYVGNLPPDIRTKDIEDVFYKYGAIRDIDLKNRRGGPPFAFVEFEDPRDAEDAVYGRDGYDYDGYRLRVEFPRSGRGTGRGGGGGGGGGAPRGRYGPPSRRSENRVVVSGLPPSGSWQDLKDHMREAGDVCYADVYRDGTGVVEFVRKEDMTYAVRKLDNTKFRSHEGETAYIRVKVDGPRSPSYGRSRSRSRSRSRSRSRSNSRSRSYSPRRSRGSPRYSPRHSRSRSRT

Sequence of UniProt P49759 (P49759 whole entry): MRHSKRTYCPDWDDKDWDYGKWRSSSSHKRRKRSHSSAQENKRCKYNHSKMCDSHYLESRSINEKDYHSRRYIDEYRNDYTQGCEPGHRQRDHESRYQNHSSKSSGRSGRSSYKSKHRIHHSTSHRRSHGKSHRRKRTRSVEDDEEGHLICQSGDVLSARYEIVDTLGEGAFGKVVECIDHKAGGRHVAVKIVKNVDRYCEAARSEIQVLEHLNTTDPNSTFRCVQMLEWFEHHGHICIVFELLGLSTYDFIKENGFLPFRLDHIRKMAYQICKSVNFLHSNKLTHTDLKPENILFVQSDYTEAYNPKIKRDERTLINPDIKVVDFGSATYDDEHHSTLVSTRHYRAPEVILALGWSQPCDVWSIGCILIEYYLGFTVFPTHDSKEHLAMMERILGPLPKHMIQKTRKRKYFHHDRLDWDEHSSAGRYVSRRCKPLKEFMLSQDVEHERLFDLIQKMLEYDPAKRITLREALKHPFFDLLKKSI

What is called Kd is the concentration at which binding is half-saturated. Turning to SRPK1 (from UniProt Q96SB4), the Kd with CLK1 (Homo sapiens) was 20 nM; in the data set with SRSF1 (Homo sapiens), 100 nM.
